Experimental data taken from patent US20140248303A1.

Columns and labels:
[1] = target: full length CbpA (CbpA-NR12) (Streptococcus pneumoniae Tigr4 strain); experiment: competitive inhibition of rCbpA-coated latex beads binding to activated RBCEC6 cells by the LR peptide
[2] = target: 37/67 laminin receptor (LR) (Homo sapiens (Human)) (UniProt P08865); experiment: adhesion of construct-labeled latex microspheres to fixed TNF-activated RBCEC6 cells
[3] = target: native CbpA of S. pneumoniae Tigr4 / T4R (on bacteria or in pneumococcal lysate) (Streptococcus pneumoniae Tigr4 strain); experiment: cell-based or functional assay
[4] = target: 37/67 laminin receptor (LR) (Homo sapiens (Human)) (UniProt P08865); experiment: cell-based or functional assay
[5] = target: 37/67 laminin receptor (LR) (Homo sapiens (Human)) (UniProt P08865); experiment: adhesion of labeled latex microspheres to RBCEC6 cells

## peptide corresponding to amino acids 161-180 of the laminin receptor
[1]
  adhesion of rCbpA-coated latex beads, % of control: 93 % of control

## CbpA-R1
[2]
  bead adherence to RBCEC6 cells, % (compared with full length CbpA-NR12 beads): 10%

## LMWWML palindromic sequence within the 161-180 laminin-binding domain (peptide)
[3]
  bacterial adhesion to activated RBCEC6 cells, % of control: 108 % of control

## native CbpA of S. pneumoniae Tigr4 / T4R (on bacteria or in pneumococcal lysate)
[4]
  pneumococcal (T4R) adherence to activated RBCEC6 cells, inhibited by anti-LRP r711: 54%
  pneumococcal (T4R) adherence to activated RBCEC6 cells, inhibited by laminin: 47%
  pneumococcal (T4R) invasion of activated RBCEC6 cells, inhibited by anti-LRP r711: 31%
  pneumococcal (T4R) invasion of activated RBCEC6 cells, inhibited by laminin: 36%

## peptide corresponding to amino acids 263-282 of the laminin receptor
[1]
  adherence of rCbpA-coated latex beads, % of control: 38 % of control

## full length CbpA (CbpA-NR12)
[5]
  fold binding over control thioredoxin labeled beads: 20 fold

## CbpA P393G (as printed) expressed on a CbpA- S. pneumoniae strain
[4]
  adherence to endothelial cells of a CbpA- strain expressing the mutant, less than wild type CbpA: 39 % less
